For data set [1], the system named is Collagen Toolkits II and III. The settings on record: Toolkit peptides from collagens II and III; ref [9]; cited from earlier work. From the text: (§1) Chondroadherin knockout mice present with ...
Data set [2] concerns Lysyl oxidase. The settings on record: very N-terminus of fibromodulin; ref [9]; cited from earlier work. From the text:
Previous studies with bacterially expressed fibromodulin fragments identified LRRs 5-7 and 11 (VI-VIII and XII in the numbering scheme used here) as important for collagen binding, [25]. Thus, the collagen binding site appears to be located in the C-terminal half of fibromodulin, potentially leaving the N-terminal half containing most of the surface-exposed aromatic residues free to interact with another partner.

Data set [3] can be described thus: Affinity of untagged protein for Ni^2 + resin. On the procedure: For purification of His-tagged fibromodulin, the filtered serum-free cell culture supernatant was adjusted to a final concentration of 20 mM Na-HEPES (pH 7.5) and loaded onto a 5-ml HisTrap Excel column (GE Healthcare) using an Äkta Purifier (GE Healthcare). The column was washed with buffer A (20 mM HEPES pH 7.5, 150 mM NaCl, 2 mM CaCl2) and the protein was eluted with 500 mM imidazole in buffer A. To remove the His-tag, fractions containing protein were incubated overnight with recombinant His-tagged TEV protease (made in E. coli using an expression vector kindly provided by Stephen Curry) while dialysing against buffer A. The reaction mixture was passed over a 5-ml HisTrap Excel column, and the flow-through containing the untagged fibromodulin protein was collected. After concentration using a Vivaspin centrifugal device (Sartorius), the fibromodulin protein was further purified by size exclusion chromatography on a Superdex 75 10/300 GL column (GE Healthcare) using buffer A as the running buffer. The purified protein ran as a single broad band of ~ 55 kDa on reducing SDS-PAGE (calculated: 41.5 kDa + 4 N-linked glycans).
The natural affinity of chondroadherin for Ni^2 + affinity resin was used to purify the untagged protein. […]

Data set [4] can be described thus: SEC-MALS, oligomeric state in solution. Type of data set: physicochemical. The settings on record: for oligomeric state in solution / experimentally determined mass: SEC-MALS; for oligomeric state in solution: 10 mg/ml injected, pH 7.5, peak protein concentration estimated at least 50 μM; for experimentally determined mass: Superdex 75, 10 mg/ml injected, 150 mM NaCl, 20 mM HEPES (pH 7.5), 0.1 ml/min; for dissociation constant of dimer (if any): inferred from SEC-MALS, compared with decorin dimer 1.4 μM. On the procedure: Fibromodulin and chondroadherin samples at a concentration of 10 mg/ml were injected onto a Superdex 75 10/30 column (GE Healthcare) connected to a 1260 Infinity HPLC (Agilent Technologies). The running buffer was 150 mM NaCl, 20 mM HEPES (pH 7.5) and the flow rate was 0.1 ml/min. Light scattering and refractive index changes were monitored using in-line Wyatt Mini Dawn and Optilab T-rEX detectors (Wyatt Technology Corp). The data were analysed with the Wyatt ASTRA V software. Each N-linked glycosylation site was assumed to add 2 kDa of molecular mass. The extinction coefficients for fibromodulin and chondroadherin were calculated as 32,930 and 40,715 M^− 1 cm^− 1, respectively.

For data set [5] the following is noted: not SEC-MALS of this work; ref [26], [32], [33]; cited from earlier work. From the text:
Fig. 3 Concave face interactions in SLRP crystal structures. For each structure, two orthogonal views are shown. […] The experimentally determined mass of fibromodulin was 56.7 kDa (calculated: 41.5 kDa + 4 N-linked glycans) and that of chondroadherin was 39.6 kDa (calculated: 38.6 kDa). In comparison, using the same SEC-MALS setup, we previously determined an experimental mass of 83.5 kDa for the glycosylated decorin core protein (calculated: 36.2 kDa + 4 N-linked glycans).

Data set [6] has as its system collagen II. The settings on record: ref [13]; cited from earlier work. From the text: One of the more distant homologues of fibromodulin is chondroadherin, a class IV SLRP found in cartilage and bone. Chondroadherin-deficient mice have thinner cortical bones and longer growth plate proliferation zones, as well as mechanically softer knee surface cartilage.
The subject of data set [7] is collagen II. The experiment in a line: Chondroadherin binding to collagen II mapped with Toolkit II. The settings on record: mapped with Toolkit II solid-phase assay; six of the nine triplets in II-26. On the procedure:
(§2) Recombinant purified chondroadherin was biotinylated using biotin EZ-link reagent (ThermoFisher) and dialysed into TBS to remove excess biotinylation reagent. Collagen peptides from Toolkit II and III [57], [58] were coated on a 96-well plate at 10 μg/ml in 20 mM acetic acid overnight at 4 °C. […] The following incubations were conducted at room temperature. Plates were rinsed three times with TBS and blocked for 1 h with 5% BSA in TBS. After rinsing with TBS, plates were incubated with biotinylated chondroadherin at 10 μg/ml in TBST (TBS with 0.1% Tween-20) with 0.1% BSA for 1 h. Plates were washed three times with TBST, and incubated with streptavidin-HRP (Millipore) diluted 1:20,000 in TBST with 0.1% BSA for 1 h. Plates were washed five times with TBST, and the binding was detected with TMB substrate (ThermoFisher) and stopped with 2 M sulphuric acid. The absorbance was read at 450 nm.

Data set [8] deals with integrin α2β1. The settings on record: cited from earlier work. From the text: One of the more distant homologues of fibromodulin is chondroadherin, a class IV SLRP found in cartilage and bone. Chondroadherin-deficient mice have thinner cortical bones and longer growth plate proliferation zones, as well as mechanically softer knee surface cartilage. […] These positions map to the α-helix in the C-terminal cap of chondroadherin. Glu316, the last residue of the α-helix, appears to be critical for integrin binding and may interact with the metal ion-dependent adhesion site of the integrin α2 I domain [45], [46].

The subject of data set [9] is collagen III. Nature of the data set: Chondroadherin binding to collagen III. The settings on record: Collagen Toolkit III solid-phase assay. On the procedure: as §2
Data set [10] concerns collagen I. The settings on record: ref [11]; cited from earlier work.
Excerpt: as §1

For data set [11] the following is noted: C-terminal 14 residues; ref [15]; cited from earlier work. From the text: The collagen-binding site on chondroadherin has not been mapped. […] These positions map to the α-helix in the C-terminal cap of chondroadherin. Glu316, the last residue of the α-helix, appears to be critical for integrin binding and may interact with the metal ion-dependent adhesion site of the integrin α2 I domain [45], [46].

“Also recorded” adds a separate entry of the source.

B1: fibromodulin: human fibromodulin residues 19–376 of UniProt Q06828, ten N-terminal tyrosines mutated to serine, natively glycosylated (protein)
chain: GALAQYEDDPHWWFHYLRSQQSTSSDPSDPSPSETSEPSPSGVDEGPASTSGSPSPPDPRDCPQECDCPPNFPTAMYCDNRNLKYLPFVPSRMKYVYFQNNQITSIQEGVFDNATGLLWIALHGNQITSDKVGRKVFSKLRHLERLYLDHNNLTRMPGPLPRSLRELHLDHNQISRVPNNALEGLENLTALYLQHNEIQEVGSSMRGLRSLILLDLSYNHLRKVPDGLPSALEQLYMEHNNVYTVPDSYFRGAPKLLYVRLSHNSLTNNGLASNTFNSSSLLELDLSYNQLQKIPPVNTNLENLYLQGNRINEFSISSFCTVVDVVNFSKLQVLRLDGNEIKRSAMPADAPLCLRLASLIEI
modifications: N-linked glycans at Asn127, Asn166, Asn201, Asn291; left off: His-tag, N-terminal, cleaved
notes: human fibromodulin residues 19–376 of UniProt Q06828, ten N-terminal tyrosines mutated to serine, natively glycosylated
On to B1, for which the “binding to Toolkit peptides” value in [1] is “bound several Toolkit peptides from both collagens II and III; also recorded: binds to KGHR-containing sites in Collagen Toolkits II and III”. Besides, in data set [2], the “binding to lysyl oxidase” value was “Lysyl oxidase has been shown to bind to the very N-terminus of fibromodulin”. Moreover, the “affinity for Ni^2 + resin” value in [3] is “substantial affinity for Ni^2 + resin”. Further, in data set [4], the “oligomeric state in solution” value is reported as “predominantly monomeric in solution; also recorded: neither fibromodulin nor chondroadherin forms a stable dimer in solution”, the experimentally determined mass was determined as 56.7 kDa and the “dissociation constant of dimer (if any)” value is given as “substantially higher than that of the decorin dimer”.

B2: biglycan: class I SLRP core protein (protein, UniProt P21810 38-368, looked up)
Biglycan: DEEASGADTSGVLDPDSVTPTYSAMCPFGCHCHLRVVQCSDLGLKSVPKEISPDTTLLDLQNNDISELRKDDFKGLQHLYALVLVNNKISKIHEKAFSPLRKLQKLYISKNHLVEIPPNLPSSLVELRIHDNRIRKVPKGVFSGLRNMNCIEMGGNPLENSGFEPGAFDGLKLNYLRISEAKLTGIPKDLPETLNELHLDHNKIQAIELEDLLRYSKLYRLGLGHNQIRMIENGSLSFLPTLRELHLDNNKLARVPSGLPDLKLLQVVYLHSNNITKVGVNDFCPMGFGVKRAYYNGISLFNNPVPYWEVQPATFRCVTDRLAIQFGNYKK
Regarding B2, the “oligomeric state in solution (literature)” value in [5] is “form stable dimers in solution”.

B3: chondroadherin: human chondroadherin, residues 23–359 of Uniprot O15335, untagged; vector-derived APLA sequence at the N-terminus (protein)
chain: APLACPQNCHCHSDLQHVICDKVGLQKIPKVSEKTKLLNLQRNNFPVLAANSFRAMPNLVSLHLQHCQIREVAAGAFRGLKQLIYLYLSHNDIRVLRAGAFDDLTELTYLYLDHNKVTELPRGLLSPLVNLFILQLNNNKIRELRAGAFQGAKDLRWLYLSENALSSLQPGALDDVENLAKFHVDRNQLSSYPSAALSKLRVVEELKLSHNPLKSIPDNAFQSFGRYLETLWLDNTNLEKFSDGAFLGVTTLKHVHLENNRLNQLPSNFPFDSLETLALTNNPWKCTCQLRGLRRWLEAKASRPDATCASPAKFKGQHIRDTDAFRSCKFPTKRSKKAGRH
Turning to B3, the “interaction with collagen II” value in data set [6] is recorded as “interacts with collagen II”. Besides, the “binding to collagen II” value in data set [7] is recorded as “binds to a unique sequence motif in collagen II”. For the same molecule, the “integrin α2β1 binding” value in data set [8] (binding site in chondroadherin, ref [44]) is listed as “residues 307–318 have been identified as a binding site for integrin α2β1”. The “interaction with integrin α2β1 (cell-matrix interactions)” value in data set [8] (ref [14]) is given as “mediates cell-matrix interactions through binding to integrin α2β1”. Also, the “binding to collagen III” value in data set [9] is on record as “not at all to collagen III”. Moreover, the “binding to collagen I” value in data set [10] is “reported binding of chondroadherin to collagen I”. The heparan sulphate binding entry in data set [11] is recorded as “bind heparan sulphate”. The “affinity for Ni^2 + resin” value in data set [3] is “substantial affinity for Ni^2 + resin”. For the same molecule, in data set [4], the “oligomeric state in solution” value is “predominantly monomeric in solution; also recorded: neither fibromodulin nor chondroadherin forms a stable dimer in solution; also recorded: at best, very weak”; the experimentally determined mass was found to be 39.6 kDa; the “dissociation constant of dimer (if any)” value was “substantially higher than that of the decorin dimer”.

Source of the values: paper PMC5618690, “Structural and functional analysis of two small leucine-rich repeat proteoglycans, fibromodulin and chondroadherin” (Matrix Biology, 2017).
